Patent US20140271603A1

Molecular target: C3 convertase of the alternative pathway (C3bBb) formed on C3b-coated wells (UniProt P01024)
Assay: cell-based or functional assay

C3 convertase of the alternative pathway (C3bBb) formed on C3b-coated wells, sequence (P01024 749-1663 limits assumed, chain 1 of 3): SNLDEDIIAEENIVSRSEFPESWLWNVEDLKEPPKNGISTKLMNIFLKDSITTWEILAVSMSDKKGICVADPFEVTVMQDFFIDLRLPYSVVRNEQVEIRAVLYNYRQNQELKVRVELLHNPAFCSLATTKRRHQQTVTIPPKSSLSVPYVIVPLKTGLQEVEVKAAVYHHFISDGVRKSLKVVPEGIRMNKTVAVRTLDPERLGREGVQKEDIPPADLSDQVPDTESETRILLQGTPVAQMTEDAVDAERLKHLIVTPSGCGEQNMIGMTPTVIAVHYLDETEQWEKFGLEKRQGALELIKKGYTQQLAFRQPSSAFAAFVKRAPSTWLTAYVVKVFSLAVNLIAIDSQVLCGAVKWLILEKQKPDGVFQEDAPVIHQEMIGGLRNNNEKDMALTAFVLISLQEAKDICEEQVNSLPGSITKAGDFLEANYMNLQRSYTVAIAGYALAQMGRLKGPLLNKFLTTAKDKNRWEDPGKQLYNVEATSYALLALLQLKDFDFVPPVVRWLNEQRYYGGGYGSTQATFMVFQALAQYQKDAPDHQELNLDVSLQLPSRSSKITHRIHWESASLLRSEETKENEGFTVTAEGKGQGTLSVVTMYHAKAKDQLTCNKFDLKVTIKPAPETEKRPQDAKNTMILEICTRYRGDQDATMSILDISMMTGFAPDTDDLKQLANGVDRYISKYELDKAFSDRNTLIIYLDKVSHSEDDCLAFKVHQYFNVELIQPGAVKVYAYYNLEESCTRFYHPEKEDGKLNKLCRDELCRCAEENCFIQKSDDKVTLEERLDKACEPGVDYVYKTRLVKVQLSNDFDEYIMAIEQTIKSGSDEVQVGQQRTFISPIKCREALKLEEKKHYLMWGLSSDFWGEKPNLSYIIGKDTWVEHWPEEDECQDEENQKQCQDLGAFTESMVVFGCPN
C3 convertase of the alternative pathway (C3bBb) formed on C3b-coated wells, sequence (P01024 23-667 limits assumed, chain 2 of 3): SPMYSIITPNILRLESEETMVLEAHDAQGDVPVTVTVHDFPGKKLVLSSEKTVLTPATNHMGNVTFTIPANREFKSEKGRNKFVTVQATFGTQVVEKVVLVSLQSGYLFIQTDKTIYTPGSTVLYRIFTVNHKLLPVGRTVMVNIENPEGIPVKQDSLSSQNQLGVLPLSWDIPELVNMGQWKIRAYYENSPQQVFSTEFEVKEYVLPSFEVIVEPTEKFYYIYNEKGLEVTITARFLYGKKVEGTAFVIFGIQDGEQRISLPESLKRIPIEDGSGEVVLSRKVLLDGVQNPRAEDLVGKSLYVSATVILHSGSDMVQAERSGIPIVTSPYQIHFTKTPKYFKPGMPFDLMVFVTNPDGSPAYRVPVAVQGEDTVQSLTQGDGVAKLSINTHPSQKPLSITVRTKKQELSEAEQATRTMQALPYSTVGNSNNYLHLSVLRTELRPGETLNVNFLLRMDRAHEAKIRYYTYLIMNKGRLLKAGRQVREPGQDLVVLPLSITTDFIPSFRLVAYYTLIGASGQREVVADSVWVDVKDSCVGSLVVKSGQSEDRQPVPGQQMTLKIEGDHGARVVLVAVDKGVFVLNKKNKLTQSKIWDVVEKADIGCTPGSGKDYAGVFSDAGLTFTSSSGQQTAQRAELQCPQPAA
C3 convertase of the alternative pathway (C3bBb) formed on C3b-coated wells, sequence (P00751 260-764 limits assumed, chain 3 of 3, further chain): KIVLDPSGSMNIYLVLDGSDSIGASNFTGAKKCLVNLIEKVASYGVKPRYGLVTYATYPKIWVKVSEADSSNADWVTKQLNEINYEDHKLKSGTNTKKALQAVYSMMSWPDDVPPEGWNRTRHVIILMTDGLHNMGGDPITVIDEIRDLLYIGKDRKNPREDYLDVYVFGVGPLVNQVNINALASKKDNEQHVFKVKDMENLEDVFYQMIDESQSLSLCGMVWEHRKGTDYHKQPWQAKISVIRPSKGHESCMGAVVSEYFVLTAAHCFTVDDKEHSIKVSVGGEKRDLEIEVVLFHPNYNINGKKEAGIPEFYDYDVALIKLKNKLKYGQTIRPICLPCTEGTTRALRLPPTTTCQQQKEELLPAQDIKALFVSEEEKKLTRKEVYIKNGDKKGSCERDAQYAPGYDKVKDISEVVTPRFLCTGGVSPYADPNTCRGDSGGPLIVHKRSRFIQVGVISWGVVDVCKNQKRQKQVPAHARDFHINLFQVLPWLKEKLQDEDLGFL

Human Factor H Calibrator NL (The Binding Site, Ref: RP030) (from UniProt P08603 19-1231)
IC50, acceleration of the dissociation of C3 convertase (sample: FH plasma calibrator (The binding site)): 68.1 ng/mL

factor H of the pool plasma (ECQ 1) (from UniProt P08603 19-1231)
mean IC50 (printed '1050'), acceleration of the dissociation of C3 convertase, pool plasma: 0.058 µg/mL

purified human plasma factor H (batch LFB) (from UniProt P08603 19-1231)
IC50, acceleration of the dissociation of C3 convertase (sample: Formulated plasma FH, purified protein): 17.9 ng/mL
IC50, acceleration of the dissociation of C3 convertase (sample: Formulated purified FH plasma): 54.6 ng/mL
IC50, acceleration of the dissociation of C3 convertase (sample: Plasma FH PBS 1X): 15.2 ng/mL
IC50, acceleration of the dissociation of C3 convertase (sample: Purified FH plasma PBS 1X): 43.8 ng/mL
